Source: publication PMC6149797, “Rational Engineering of a Flavoprotein Oxidase for Improved Direct Oxidation of Alcohols to Carboxylic Acids” (Molecules : A Journal of Synthetic Chemistry and Natural …, 2017)

B1: 5-(hydroxymethyl)furfural oxidase (HMFO) (Methylovorus sp. MP688) (protein)
chain: MTDTIFDYVIVGGGTAGSVLANRLSARPENRVLLIEAGIDTPENNIPPEIHDGLRPWLPRLSGDKFFWPNLTIHRAAEHPGITREPQFYEQGRLLGGGSSVNMVVSNRGLPRDYDEWQALGADGWDWQGVLPYFIKTERDADYGDDPLHGNAGPIPIGRVDSRHWSDFTVAATQALEAAGLPNIHDQNARFDDGYFPPAFTLKGEERFSAARGYLDASVRVRPNLSLWTESRVLKLLTTGNAITGVSVLRGRETLQVQAREVILTAGALQSPAILLRTGIGPAADLHALGIPVLADRPGVGRNLWEHSSIGVVAPLTEQARADASTGKAGSRHQLGIRASSGVDPATPSDLFLHIGADPVSGLASAVFWVNKPSSTGWLKLKDADPFSYPDVDFNLLSDPRDLGRLKAGLRLITHYFAAPSLAKYGLALALSRFAAPQPGGPLLNDLLQDEAALERYLRTNVGGVWHASGTARIGRADDSQAVVDKAGRVYGVTGLRVADASIMPTVPTANTNLPTLMLAEKIADAILTQA
notes: N-terminal His-SUMO fusion (Champion pET SUMO), tag not cleaved; E. coli BL21(DE3)

How the values were obtained:
[1] = tested on: T1, O=[N+]([O-])c1ccc(CO)cc1; assay: coupled HRP H2O2 assay, Michaelis-Menten; type: biochemical, Methylovorus sp. MP688; settings: O2 (co-substrate), 100 mM sodium phosphate pH 7.0, 30 °C
T1 construct: N-terminal His-SUMO fusion (Champion pET SUMO), tag not cleaved; E. coli BL21(DE3)
Excerpt: (§1) coupled HRP H2O2 assay, Michaelis-Menten on 5-(hydroxymethyl)furfural oxidase (HMFO)

[2] = tested on: T2, O=Cc1ccc([N+](=O)[O-])cc1; assay: coupled HRP H2O2 assay, Michaelis-Menten; type: biochemical, Methylovorus sp. MP688; settings: O2 (co-substrate), 100 mM sodium phosphate pH 7.0, 30 °C, aldehyde oxidised via its gem-diol hydrate
T2 construct: N-terminal His-SUMO fusion (Champion pET SUMO), tag not cleaved; E. coli BL21(DE3)
Excerpt: as §1

[3] = substrate: O=[N+]([O-])c1ccc(CO)cc1; assay: purified protein; settings: O2 (co-substrate), 100 mM sodium phosphate pH 7.0, 30 °C
[4] = substrate: O=Cc1ccc([N+](=O)[O-])cc1; assay: coupled HRP H2O2 assay, Michaelis-Menten; type: biochemical, Methylovorus sp. MP688; settings: O2 (co-substrate), 100 mM sodium phosphate pH 7.0, 30 °C, aldehyde oxidised via its gem-diol hydrate
Excerpt: as §1

Molecule | Km [1] [µM] | kcat [1] [s⁻¹] | kcat/Km [1] [M⁻¹ s⁻¹] | Km [2] [µM] | kcat [2] [s⁻¹] | kcat/Km [2] [M⁻¹ s⁻¹] | Km [3] [µM] | kcat [3] [s⁻¹] | kcat/Km [3] [M⁻¹ s⁻¹] | Km [4] [µM] | kcat [4] [s⁻¹] | kcat/Km [4] [M⁻¹ s⁻¹]
5-(hydroxymethyl)furfural oxidase (HMFO) (Methylovorus sp. MP688; V465T) | 30 | 1.7 | 57000 |  |  |  |  |  |  |  |  | 
5-(hydroxymethyl)furfural oxidase (HMFO) (Methylovorus sp. MP688; W466H) | 400 | 0.02 | 50 | 160 | 0.003 | 20 |  |  |  |  |  | 
B1 |  |  |  |  |  |  | 260 | 7.4 | 28000 | 310 | 0.3 | 970
